From patent publication US20210355194A1

B1: variant 6-63 (Fc fusion)
VHH: EVQLVESGGGLVQPGGSLRLSCAASGQTFNMGWFRQAPGKEREFVAAIGSGGSTSYADSVKGRFTISADNSKNTAYLQMNSLKPEDTAVYYCWRLGNDYFDYWGQGTLVTVSS
B2: variant 6-9 (Fc fusion)
VHH: EVQLVESGGGLVQPGGSLRLSCAASGFTFDYYAMGWFRQAPGKEREFVSAIDSEGRTSYADSVKGRFTISADNSKNTAYLQMNSLKPEDTAVYYCARWGPFDIWGQGTLVTVSS

Assays:
Conditions in all cases: remark: other sources report otherwise
[1] = biological target: SARS-COV2-S1 RBD (mouse IgG2Fc tag) (SARS-CoV-2), P0DTC2; assay: FACS, blocks S1 RBD-mFc binding to ACE2 on Vero E6
[2] = biological target: T1, CV S-protein construct 6 trimer TP31001F (SARS-CoV-2), P0DTC2; assay: SPR
[3] = biological target: T1, CV S-protein construct 6 trimer …; assay: SPR; remark: listed apart in the source
[4] = biological target: SARS-COV2-S1 RBD (mouse IgG2Fc tag) (SARS-CoV-2), P0DTC2; assay: FACS, S1 RBD-mFc on Vero E6 (ACE2)
[5] = biological target: SARS-COV2-S1 RBD (mouse IgG2Fc tag) (SARS-CoV-2), P0DTC2; assay: column not explained; likely FACS, S1 RBD on Vero E6

Binder	IC50 [1]	Kd [2]	Kd [3]	Competition Factor [4]	MFI Fold Decrease [5]
B1	740 pM	300 pM	300 pM	7.76	7.76 fold
B2	–	900 pM	900 pM	–	–
